Like-named read-outs stand apart in the source and are kept apart here.
How the values were obtained:
[1] = target: T1, lambda cI repressor, hexa-histidine-tagged (bacteriophage lambda, UniProt P03034 1-237); assay: filter binding
[2] = target: T1, lambda cI repressor, …; assay: filter binding; remark: listed apart in the source

T1 sequence (P03034 whole entry): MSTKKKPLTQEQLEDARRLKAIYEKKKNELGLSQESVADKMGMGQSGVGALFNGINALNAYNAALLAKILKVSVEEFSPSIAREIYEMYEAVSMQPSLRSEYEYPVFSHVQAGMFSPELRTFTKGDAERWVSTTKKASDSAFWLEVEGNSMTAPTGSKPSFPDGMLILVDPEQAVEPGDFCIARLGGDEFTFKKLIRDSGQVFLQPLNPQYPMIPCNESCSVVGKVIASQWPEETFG

B1: aptamer Tarap (Guu(0/-7)) (structured_RNA)
RNA: GGGAUCGACAGGGCUCCCGUUUGGCUCGGCGAAGAUCGCCUGUACUUUGGAAAGCCGAGUCGU
[1]
  Kd: 264 ± 24 nM
[2]
  Kd: 518 ± 96 nM

Source: PMC5855949
